The record followed here is paper PMC4909301, “Fibulin-5 Regulates Angiopoietin-1/Tie-2 Receptor Signaling in Endothelial Cells” (PLoS ONE, 2016).

The assay concerns the target T1, recombinant human Tie-2/Fc chimera (human, UniProt Q02763 23-748).
T1 construct: TIE-2 receptor tyrosine kinase, human, part fused to Fc in R&D Systems Cat. #313-TI-100; source: bought: R&D Systems
The experiment in a line: ELISA; solid-phase binding assay; TIE-2/Fc (4.0 ug/ml) or Fibulin-5 (20 ug/ml) coated on 96-well plates; 1:2 serial dilutions of soluble Ang-1 in 2% non-fat milk in TBS, 1 hr, room temperature; detected with Ang-1 antibody. The following applies: both partners purified.

T1 sequence (Q02763 23-748, change not shown): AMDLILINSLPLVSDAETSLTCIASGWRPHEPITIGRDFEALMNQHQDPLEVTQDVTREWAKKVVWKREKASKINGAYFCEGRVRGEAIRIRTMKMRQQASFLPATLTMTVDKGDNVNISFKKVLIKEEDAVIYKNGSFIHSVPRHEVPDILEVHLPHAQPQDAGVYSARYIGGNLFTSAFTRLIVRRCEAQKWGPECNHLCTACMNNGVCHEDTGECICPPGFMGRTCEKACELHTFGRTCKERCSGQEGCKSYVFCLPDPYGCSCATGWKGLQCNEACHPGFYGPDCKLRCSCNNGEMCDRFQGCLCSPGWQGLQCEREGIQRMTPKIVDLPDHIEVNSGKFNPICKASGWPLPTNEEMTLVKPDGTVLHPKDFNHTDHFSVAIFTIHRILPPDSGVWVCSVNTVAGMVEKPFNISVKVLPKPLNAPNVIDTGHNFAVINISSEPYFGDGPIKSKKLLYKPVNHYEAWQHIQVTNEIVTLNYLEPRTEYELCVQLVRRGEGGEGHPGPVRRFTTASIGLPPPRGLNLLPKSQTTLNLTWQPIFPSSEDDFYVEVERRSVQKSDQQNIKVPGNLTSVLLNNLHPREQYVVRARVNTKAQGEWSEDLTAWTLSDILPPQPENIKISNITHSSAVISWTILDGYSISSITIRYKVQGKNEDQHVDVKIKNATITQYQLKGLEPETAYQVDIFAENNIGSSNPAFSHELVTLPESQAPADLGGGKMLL

B1: recombinant human Ang-1 (angiopoietin-1) (ligand, UniProt Q15389 16-498, looked up)
chain: HIGCSNQRRSPENSGRRYNRIQHGQCAYTFILPEHDGNCRESTTDQYNTNALQRDAPHVEPDFSSQKLQHLEHVMENYTQWLQKLENYIVENMKSEMAQIQQNAVQNHTATMLEIGTSLLSQTAEQTRKLTDVETQVLNQTSRLEIQLLENSLSTYKLEKQLLQQTNEILKIHEKNSLLEHKILEMEGKHKEELDTLKEEKENLQGLVTRQTYIIQELEKQLNRATTNNSVLQKQQLELMDTVHNLVNLCTKEGVLLKGGKREEEKPFRDCADVYQAGFNKSGIYTIYINNMPEPKKVFCNMDVNGGGWTVIQHREDGSLDFQRGWKEYKMGFGNPSGEYWLGNEFIFAITSQRQYMLRIELMDWEGNRAYSQYDRFHIGNEKQNYRLYLKGHTGTAGKQSSLILHGADFSTKDADNDNCMCKCALMLTGGWWFDACGPSNLNGMFYTAGQNHGKLNGIKWHYFKGPSYSLRSTTMMIRPLDF
notes: angiopoietin-1, human, recombinant, R&D Systems Cat. #923-AN/CF; The introduction calls angiopoietins oligomeric glycoproteins; source: bought: R&D Systems
As for B1, the binding result is reported as “binds”.
